T1: PaHMG5 (HMG5His) (Podospora anserina, UniProt B2AM17 1-559)
T1 sequence: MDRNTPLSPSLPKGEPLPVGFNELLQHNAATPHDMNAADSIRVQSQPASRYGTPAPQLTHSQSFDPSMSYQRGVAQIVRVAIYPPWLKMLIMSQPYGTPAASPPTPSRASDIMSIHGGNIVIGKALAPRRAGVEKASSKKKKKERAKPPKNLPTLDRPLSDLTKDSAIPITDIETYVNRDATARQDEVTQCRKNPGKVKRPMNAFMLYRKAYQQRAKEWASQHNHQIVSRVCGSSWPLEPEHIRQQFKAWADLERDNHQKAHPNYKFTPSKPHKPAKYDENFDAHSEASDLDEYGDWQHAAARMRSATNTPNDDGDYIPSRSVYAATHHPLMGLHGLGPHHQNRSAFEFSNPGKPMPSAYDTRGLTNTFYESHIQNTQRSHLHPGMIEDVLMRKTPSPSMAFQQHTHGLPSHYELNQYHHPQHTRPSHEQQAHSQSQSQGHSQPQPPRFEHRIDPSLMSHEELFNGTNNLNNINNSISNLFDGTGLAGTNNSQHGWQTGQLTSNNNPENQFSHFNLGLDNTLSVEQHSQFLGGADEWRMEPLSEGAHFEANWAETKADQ

B1: FMR1 probe (dsDNA)
DNA 1: GTGCAGGATAGCCAACAAAGAAATGACTGCCACG
DNA 2: GCGTGGCAGTCATTTCTTTGTTGGCTATCCTGCA
B2: FPR1 probe (dsDNA)
DNA 1: GGTGAAGGTGAATAACAAAGAAATACACTGACGG
DNA 2: GCCGTCAGTGTATTTCTTTGTTATTCACCTTCAC
B3: PaHMG8 probe (dsDNA)
DNA 1: GTGCAAACGCGGGGACAAAGAAAAAGTCTGGTGC
DNA 2: GGCACCAGACTTTTTCTTTGTCCCCGCGTTTGCA
B4: PaHMG5 probe (dsDNA)
DNA 1: GTAGAGAAGCCGGAACAAAGAAAGGAACAAGCAG
DNA 2: GCTGCTTGTTCCTTTCTTTGTTCCGGCTTCTCTA
B5: KEF1 (PaHMG9) probe (dsDNA)
DNA 1: GATCGTAGCTATAGACAAAGAAAGCAACAGATAG
DNA 2: GCTATCTGTTGCTTTCTTTGTCTATAGCTACGAT
B6: mtHMG1 probe (dsDNA)
DNA 1: GGAGGGCATCTTCAACAAAGAATCTCGGCAAATA
DNA 2: GTATTTGCCGAGATTCTTTGTTGAAGATGCCCTC

Target: T1, PaHMG5 (HMG5His)
Test: EMSA; 20 mM Tris pH 9.0, 500 mM NaCl, 5 mM beta-mercaptoethanol, 5 mM MgCl2, 5% glycerol, 1.25 ug poly(dI-dC), 11 ul, on ice; 6% gel in 0.25x TBE
Conditions: protein: recombinant; tags: C-terminal His6; label: 5'-32P; 33 bp duplex, 1 nt 5' G overhang on each strand

Q: Does B1 bind?
A: binds

Q: Does B2 bind?
A: binds

Q: Does B3 bind?
A: binds

Q: Does B4 bind?
A: binds

Q: Does B5 bind?
A: binds

Q: Does B6 bind?
A: binds

From article PMC3730723, “A Network of HMG-box Transcription Factors Regulates Sexual Cycle in the Fungus Podospora anserina”
